In the Human Domainome abundance scans (Beltran et al. 2025):

B1: MEF2-activating motif and SAP domain-containing transcriptional regulator, residues 170 to 204; numbered along this chain, Q6ZN01 (parent)
chain: LKLEELTVSELRQQLRLRGLPVSGTKSMLLERMRG

Variants of: B1
Assay: abundance fitness (aPCA) (normalised: wild type 0, dead -1); higher = more abundant; growth selection in yeast, the domain comes from the species named
Settings: Homo sapiens

Abundance fitness, by site and new letter:
L30: Y -0.915; T -0.257; R -0.283; G -0.493; P -0.507; I 0.394; Q 0.004; C -0.197; M -0.179; W -0.456; A -0.356; K -0.23; S -0.601; E -0.251; V -0.099; D -0.376
R32: L -0.485; E -0.219; A -0.459; G -0.326; Q -0.232; M -0.369; V -0.368; I -0.507; N -0.02; S -0.483; W -0.554; T 0; C -0.611; K -0.545
V22: D -0.046; E 0.025; L -0.209; C -0.255; T 0.152; W -0.595; P -0.701; A 0.052; S -0.168; Y 0.298; Q -0.108; I -0.262; R -0.375; N -0.407
G24: M -0.768; E -0.335; R -0.867; P -0.829; K -1.25; V -0.828; S -0.817; W -0.41; L -1.01; Q -0.935
S23: E 0.025; G -0.007; N -0.02; D 0.233; V -0.16; P -0.838; A -0.103; K -0.198; R -0.384; L -0.349; Q -0.147; M -0.222; C -0.274; W -0.883; Y -0.106
K26: A -0.057; R 0.048; G -0.78; L -0.159; C -0.761; W -0.361; D -0.467; M -0.725; E -0.379; T -0.42; Q -0.221; S -0.697
G35: W -0.416; A -0.117; S -0.262; R -0.436; F -0.295; L -0.074; N -0.161
T25: V -0.435; S 0.004; D 0.215; M -0.517; G -0.27; K -0.204; H -0.295; Q -0.441; P -0.29; E -0.051; F -0.608; R -0.497; C -0.43; L -0.581
M33: N -0.613; G -0.343; R -0.66; F -0.516; S -0.34; L 0.206; A -0.161; E -0.146; T -0.525; Q 0.04; C -0.235; W -0.538
M28: V 0.05; H -0.003; Q 0.067; P -0.973; F -0.616; S -0.36; A 0.022; G -0.512; W -0.839; N -0.402; L -0.106; T -0.081; I -0.015; C -0.393
E31: N -0.238; P -0.992; C -0.745; V -1.16; L -0.503; M -0.343; G -0.279; Q -0.227; W -0.755; T -0.348; S -0.27; Y -0.124
P21: S -0.129; V -0.335; W -0.854; R -0.39; T -0.235; Q -0.317; N -0.303; Y -0.909
S27: E 0.081; Q 0.38; H -0.246; D 0.069; V -0.349; L -0.281; P -0.19; Y -0.725; C -0.455; W -0.23; A -0.1; G -0.108; T -0.108; R -0.154; F -1.15
R34: T -0.045; V -0.244; A -0.118; D -0.396; W -0.556; I -0.323; M -0.416; E -0.089; S -0.064; N 0.21; Y -0.316; F -0.516; C -0.021; L -0.068; Q 0.156
L29: Y -0.469; D -0.51; E -0.22; P -0.909; V -0.842; Q -0.486; G -0.455; S -0.545; T -0.297; I -0.749; R -0.616; F -0.589; M -0.338; K -0.31; N -0.683; W -0.594
